Assay results reported in patent publication US20060142192A1 (ZymoGenetics, published 2006).

Key:
Assay in all cases: flow cytometry, biotinylated ligand + streptavidin-PE on stably transfected BHK cells
[1] = target: T1, human IL-17B (biotinylated) (human, UniProt Q9UHF5 21-180, biotin label (sites not given))
T1 sequence (looked up): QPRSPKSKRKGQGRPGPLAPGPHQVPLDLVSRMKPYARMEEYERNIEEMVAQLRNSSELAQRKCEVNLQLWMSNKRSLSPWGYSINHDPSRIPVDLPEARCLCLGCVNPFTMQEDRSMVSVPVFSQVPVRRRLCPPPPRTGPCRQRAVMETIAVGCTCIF

[2] = target: T2, human IL-17A (biotinylated) (human, UniProt Q16552 24-155, biotin label (sites not given))
T2 sequence (looked up): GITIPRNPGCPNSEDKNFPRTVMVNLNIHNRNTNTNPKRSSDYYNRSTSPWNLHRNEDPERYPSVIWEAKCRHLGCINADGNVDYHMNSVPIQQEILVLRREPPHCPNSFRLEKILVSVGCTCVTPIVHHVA

[3] = target: T3, human IL-17D (biotinylated) (human, UniProt Q8TAD2 18-202, limits assumed, biotin label (sites not given))
T3 sequence (looked up): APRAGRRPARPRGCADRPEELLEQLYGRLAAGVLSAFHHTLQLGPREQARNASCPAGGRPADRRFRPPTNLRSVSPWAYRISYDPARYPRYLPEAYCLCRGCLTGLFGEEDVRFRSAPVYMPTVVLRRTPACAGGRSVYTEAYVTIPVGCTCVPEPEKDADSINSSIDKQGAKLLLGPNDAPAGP

[4] = target: T4, human IL-17F (biotinylated) (human, UniProt Q96PD4 31-163, biotin label (sites not given))
T4 sequence (looked up): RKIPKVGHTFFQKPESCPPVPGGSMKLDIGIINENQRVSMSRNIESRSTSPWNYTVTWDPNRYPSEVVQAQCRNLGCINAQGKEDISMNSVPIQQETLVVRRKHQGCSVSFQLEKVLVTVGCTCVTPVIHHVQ

Measured: binding result

B1: human ZcytoR21x3 (receptor)
chain: AGIGFRHLPHWNTRCPLASHTVFNGASSTSWCRNPKSLPHSSSIGDTRCQHLLRGSCCLVVTCLRRAITFPSPPQTSPTRDFALKGPNLRIQRHGKVFPDWTHKGPEFSFDLLPEARAIRVTISSGPEVSVRLCHQWALECEELSSPYDVQKIVSGGHTVELPYEFLLPCLCIEASYLQEDTVRRKKCPFQSWPEAYGSDFWKSVHFTDYSQHTQMVMALTLRCPLKLEAALCQRHDWHTLCKDLPNATARESDGWYVLEKVDLHPQLCFKFSFGNSSHVECPHQTGITEARDWPSHIQVSCSPGVPIREPQTSNCLWFVRNEATQQEARGSSPVSLDLIIPFLRPGCCVLVWRSDVQFAWKHLLCPDVSYRHLGLLILALLALLTLLGVVLALTCRRPQSGPGPARPVLLLHAADSEAQRRLVGALAELLRAALGGGRDVIVDLWEGRHVARVGPLPWLWAARTRVAREQGTVLLLWSGADLRPVSGPDPRAAPLLALLHAAPRPLLLLAYFSRLCAKGDIPPPLRALPRYRLLRDLPRLLRALDARPFAEATSWGRLGARQRRQSRLELCSRLEREAARLADLG
notes: also called hcytor21x3
no binding: all assays above
